This assay concerns the target T1, FcγRIIa R (human, UniProt P12318 34-217).
T1 construct: extracellular domain; also called FcgRIIa R type; 2aR
T1 sequence (looked up): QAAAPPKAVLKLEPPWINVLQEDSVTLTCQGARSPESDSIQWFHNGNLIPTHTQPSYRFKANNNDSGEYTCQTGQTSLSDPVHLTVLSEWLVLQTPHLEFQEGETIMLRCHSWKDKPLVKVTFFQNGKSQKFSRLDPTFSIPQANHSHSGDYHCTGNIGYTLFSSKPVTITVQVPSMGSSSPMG
The experiment in a line: SPR (Biacore), captured antibody, FcγR as analyte; relative binding activity.

B1: GpH7-A5/GpH7-B3 variant E333_04F/GpL16-k0 (antibody, human IgG1, kappa)
heavy 1: not shown
heavy 2: not shown
light: DIVMTQSPLSLPVTPGEPASISCQASESLVHSNRNTYLHWYLQKPGQSPQLLIYKVSNRFSGVPDRFSGSGSGTDFTLKISRVEAEDVGVYYCSQNTHVPPTFGQGTKVEIERTVAAPSVFIFPPSDEQLKSGTASVVCLLNNFYPREAKVQWKVDNALQSGNSQESVTEQDSKDSTYSLSSTLTLSKADYEKHKVYACEVTHQGLSSPVTKSFNRGEC
notes: also called He Ab E333_04F
Turning to B1, the He/Con_2aR was 102 % (GpH7-A5/GpH7-B3/GpL16-k0 = 100).

B2: GpH7-A5/GpH7-B3 variant E333_09D/GpL16-k0 (antibody, human IgG1, kappa)
heavy 1: not shown
heavy 2: not shown
light: DIVMTQSPLSLPVTPGEPASISCQASESLVHSNRNTYLHWYLQKPGQSPQLLIYKVSNRFSGVPDRFSGSGSGTDFTLKISRVEAEDVGVYYCSQNTHVPPTFGQGTKVEIERTVAAPSVFIFPPSDEQLKSGTASVVCLLNNFYPREAKVQWKVDNALQSGNSQESVTEQDSKDSTYSLSSTLTLSKADYEKHKVYACEVTHQGLSSPVTKSFNRGEC
notes: also called He Ab E333_09D
Regarding B2, the He/Con_2aR was 103 % (GpH7-A5/GpH7-B3/GpL16-k0 = 100).

B3: GpH7-A5/GpH7-B3 variant E333_07I/GpL16-k0 (antibody, human IgG1, kappa)
heavy 1: not shown
heavy 2: not shown
light: DIVMTQSPLSLPVTPGEPASISCQASESLVHSNRNTYLHWYLQKPGQSPQLLIYKVSNRFSGVPDRFSGSGSGTDFTLKISRVEAEDVGVYYCSQNTHVPPTFGQGTKVEIERTVAAPSVFIFPPSDEQLKSGTASVVCLLNNFYPREAKVQWKVDNALQSGNSQESVTEQDSKDSTYSLSSTLTLSKADYEKHKVYACEVTHQGLSSPVTKSFNRGEC
notes: also called He Ab E333_07I
B3: the He/Con_2aR was 104 % (GpH7-A5/GpH7-B3/GpL16-k0 = 100).

B4: GpH7-A5/GpH7-B3 variant G237_02A/GpL16-k0 (antibody, human IgG1, kappa)
heavy 1: not shown
heavy 2: not shown
light: DIVMTQSPLSLPVTPGEPASISCQASESLVHSNRNTYLHWYLQKPGQSPQLLIYKVSNRFSGVPDRFSGSGSGTDFTLKISRVEAEDVGVYYCSQNTHVPPTFGQGTKVEIERTVAAPSVFIFPPSDEQLKSGTASVVCLLNNFYPREAKVQWKVDNALQSGNSQESVTEQDSKDSTYSLSSTLTLSKADYEKHKVYACEVTHQGLSSPVTKSFNRGEC
notes: also called He Ab G237_02A
For B4, the He/Con_2aR was 126 % (GpH7-A5/GpH7-B3/GpL16-k0 = 100).

B5: GpH7-A5/GpH7-B3 variant E333_15Y/GpL16-k0 (antibody, human IgG1, kappa)
heavy 1: not shown
heavy 2: not shown
light: DIVMTQSPLSLPVTPGEPASISCQASESLVHSNRNTYLHWYLQKPGQSPQLLIYKVSNRFSGVPDRFSGSGSGTDFTLKISRVEAEDVGVYYCSQNTHVPPTFGQGTKVEIERTVAAPSVFIFPPSDEQLKSGTASVVCLLNNFYPREAKVQWKVDNALQSGNSQESVTEQDSKDSTYSLSSTLTLSKADYEKHKVYACEVTHQGLSSPVTKSFNRGEC
notes: also called He Ab E333_15Y
With B5, the He/Con_2aR was 101 % (GpH7-A5/GpH7-B3/GpL16-k0 = 100).

B6: GpH7-A5/GpH7-B3 variant E333_08L/GpL16-k0 (antibody, human IgG1, kappa)
heavy 1: not shown
heavy 2: not shown
light: DIVMTQSPLSLPVTPGEPASISCQASESLVHSNRNTYLHWYLQKPGQSPQLLIYKVSNRFSGVPDRFSGSGSGTDFTLKISRVEAEDVGVYYCSQNTHVPPTFGQGTKVEIERTVAAPSVFIFPPSDEQLKSGTASVVCLLNNFYPREAKVQWKVDNALQSGNSQESVTEQDSKDSTYSLSSTLTLSKADYEKHKVYACEVTHQGLSSPVTKSFNRGEC
notes: also called He Ab E333_08L
Take B6: the He/Con_2aR was 103 % (GpH7-A5/GpH7-B3/GpL16-k0 = 100).

B7: GpH7-A5/GpH7-B3 variant G236_14T/GpL16-k0 (antibody, human IgG1, kappa)
heavy 1: not shown
heavy 2: not shown
light: DIVMTQSPLSLPVTPGEPASISCQASESLVHSNRNTYLHWYLQKPGQSPQLLIYKVSNRFSGVPDRFSGSGSGTDFTLKISRVEAEDVGVYYCSQNTHVPPTFGQGTKVEIERTVAAPSVFIFPPSDEQLKSGTASVVCLLNNFYPREAKVQWKVDNALQSGNSQESVTEQDSKDSTYSLSSTLTLSKADYEKHKVYACEVTHQGLSSPVTKSFNRGEC
notes: also called He Ab G236_14T
With B7, the He/Con_2aR was 103 % (GpH7-A5/GpH7-B3/GpL16-k0 = 100).

B8: GpH7-A5/GpH7-B3 variant E333_05P/GpL16-k0 (antibody, human IgG1, kappa)
heavy 1: not shown
heavy 2: not shown
light: DIVMTQSPLSLPVTPGEPASISCQASESLVHSNRNTYLHWYLQKPGQSPQLLIYKVSNRFSGVPDRFSGSGSGTDFTLKISRVEAEDVGVYYCSQNTHVPPTFGQGTKVEIERTVAAPSVFIFPPSDEQLKSGTASVVCLLNNFYPREAKVQWKVDNALQSGNSQESVTEQDSKDSTYSLSSTLTLSKADYEKHKVYACEVTHQGLSSPVTKSFNRGEC
notes: also called He Ab E333_05P
With B8, the He/Con_2aR is 105 % (GpH7-A5/GpH7-B3/GpL16-k0 = 100).

These data come from patent US20150344570A1 (published 2015).
